Values joined by “and” are separate entries in the source; they are usually repeats but may differ in a detail not shown here. Equal values may be shown once.
Target: recombinant hSIRPa (Sino Biologicals, reference 10975-H08H) (human) (UniProt P78324)
Assay: ELISA, hSIRPa (Sino 10975-H08H) coated at 0.5 ug/ml, anti-mouse Fc detection

recombinant hSIRPa (Sino Biologicals, reference 10975-H08H) (human), sequence (P78324 other isoform, or with tags, fused parts or gaps H08H H08H): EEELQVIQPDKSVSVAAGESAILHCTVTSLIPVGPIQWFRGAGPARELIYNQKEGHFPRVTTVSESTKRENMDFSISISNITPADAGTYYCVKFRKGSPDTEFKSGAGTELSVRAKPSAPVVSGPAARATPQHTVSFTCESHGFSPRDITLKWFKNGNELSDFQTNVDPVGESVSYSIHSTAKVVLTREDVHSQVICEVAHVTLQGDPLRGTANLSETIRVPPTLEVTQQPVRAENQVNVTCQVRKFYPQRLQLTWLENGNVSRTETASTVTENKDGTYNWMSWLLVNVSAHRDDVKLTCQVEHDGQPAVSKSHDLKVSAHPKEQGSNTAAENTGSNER

SE5A5 (antibody)
EC50: 0.16 nM and 0.024 µg/mL

Reference: patent EP3443010B1
